The source of these data is patent publication US20230310712A1, “IMPLANTABLE CELL CHAMBER DEVICE AND USES THEREOF” (Takeda Pharmaceutical Company Limited, priority 2020, published 2023).

Data set [1] deals with human TNFα (Homo sapiens, UniProt P01375). The data set is described as follows: Neutralization of human TNFα activity in L-929 cells (CCK-8 viability). Format: cell-based. The note with it: antibody secreted by ARPE-19 cells in culture medium, human TNFα 1 ng/mL. As for the experimental part:
Adalimumab is an anti-TNFα antibody. To assay for adalimumab activity in the cell culture medium of adalimumab/ARPE-19 cells, L-929 cells were seeded into a 96 well cell culture plate at the density of 5,000 cells/well in DMEM supplemented with 10% FBS. After 20-hour incubation, the cells were sensitized with Actinomycin D (2 μg/mL) for two hours. Then the cells were incubated with culture medium comprising antibodies secreted by the ARPE-19 cells in the presence of human TNFα (1 ng/mL). After another 20-hour incubation the cells were evaluated for cell viability by a CCK-8 assay to test for neutralization of human TNFα activity.

A short description of data set [2]: Plasma concentration of adalimumab or ustekinumab in implanted Nude mice (human IgG Fc ELISA). The data set is classed as in vivo, mouse. The note with it: for day plateau was reached: nPET-PBT/PET/nPU cell chamber device; for average plasma concentration plateau: nPET-PBT/PET/nPU cell chamber device with antibody-expressing ARPE19 cells, subcutaneous. Here is the method: To assess the ability to deliver biologics into the blood flow and the applicability of the devices to other biologics, secretion of adalimumab or ustekinumab from the nPET-PBT/PET/nPU cell chamber device described in Example 10 was assessed in vivo. The nPET-PBT/PET/nPU cell chamber device was seeded with ARPE19 cells stably expressing adalimumab or ustekinumab (see also Example 8) and subcutaneously implanted in Nude mice. Mice were assessed by blood collection over the course of >100 days to measure the plasma concentration of each antibody over time. Human IgG concentration in plasma was tested by an ELISA assay which detected the human IgG Fc region. […] (Day 1-Day 60: N=5, Day 61-Day 81: N=4, Day 82-92: N=3, Day 93-Day 108: N=2). Similarly, the average ustekinumab plasma concentration reached a plateau of approximately 60-110 μg/mL around Day 20 and maintained a steady-state over 80 days (N=5).
(In general: An ELISA detects its analyte on a solid surface through an enzyme-linked reagent.)

The nature of data set [3]: HPLC analysis of tacrolimus solvent-extracted from electrospun nPET-PBT. The data set is classed as physicochemical. The note with it: HPLC after solvent extraction. Here is the method:
To reduce inflammation due to implantation trauma, the cell scaffold device can be loaded with tacrolimus (FK506). To assess cell seeding and biomolecule secretion on tacrolimus-treated materials, electrospun nPET-PBT was loaded with tacrolimus by dissolving 0% tacrolimus, 2% tacrolimus, or 4% tacrolimus to the polymer solution prior to electrospinning.
Incorporation of tacrolimus into nPET-PBT was assessed by solvent extracting the tacrolimus from the electrospun materials. The solvent extracted solution was then analyzed by high performance liquid chromatography (HPLC).

Data set [4] deals with vedolizumab/Luc-ARPE19 cells. The data set is described as follows: Cell growth and vedolizumab secretion on tacrolimus-loaded nPET-PBT. The data set is classed as cell-based, human. The note with it: 200,000 cells/condition, three days, fluorescence imaging. Here is the method:
Cells were grown on tacrolimus-loaded nPET-PBT discs over three days, after which the surfaces of the nPET-PBT material were visually inspected by fluorescence imaging. […] Cells were further assessed three weeks post-seeding.

Chain of human TNFα (P01375 77-233 limits assumed): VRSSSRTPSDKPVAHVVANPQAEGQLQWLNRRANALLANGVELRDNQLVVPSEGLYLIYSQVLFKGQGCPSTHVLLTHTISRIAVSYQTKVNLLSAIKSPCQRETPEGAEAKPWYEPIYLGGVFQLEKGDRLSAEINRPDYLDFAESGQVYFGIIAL

As for adalimumab, in data set [1], the TNFα neutralizing activity entry is listed as “retained TNFα neutralizing activity”. Further, in data set [2], the “day plateau was reached” value is approximately 25 days and the “average plasma concentration plateau” value is 50 to 100 µg/mL.
For `C=CC[C@@H]1/C=C(\C)C[C@H](C)C[C@H](OC)[C@H]2O[C@@](O)(C(=O)C(=O)N3CCCC[C@H]3C(=O)O[C@H](/C(C)=C/[C@@H]3CC[C@@H](O)[C@H](OC)C3)[C@H](C)[C@@H](O)CC1=O)[C@H](C)C[C@@H]2OC` [tacrolimus], in data set [3], the “drug degradation following loading onto electrospun nPET-PBT” value is “no drug degradation”. The “effect on cell proliferation or growth” value in data set [4] was “no detectable effect on cell proliferation or growth”.
ustekinumab: anti-IL-12/IL-23 antibody: in data set [2], the “day plateau was reached” value is approximately 20 days and the “average plasma concentration plateau” value was in the range of 60 to 110 µg/mL.
